In patent US20240218070A1 (MERUS N V, published 2024):

T1: huFAP-His recombinant protein (R&D Systems cat. #3715-SE) (human, UniProt Q12884 26-760)
T1 construct: Bought His-tagged recombinant protein; also called huFAP protein; human FAP (R&D, cat. No. 3715-SE)
T1 sequence: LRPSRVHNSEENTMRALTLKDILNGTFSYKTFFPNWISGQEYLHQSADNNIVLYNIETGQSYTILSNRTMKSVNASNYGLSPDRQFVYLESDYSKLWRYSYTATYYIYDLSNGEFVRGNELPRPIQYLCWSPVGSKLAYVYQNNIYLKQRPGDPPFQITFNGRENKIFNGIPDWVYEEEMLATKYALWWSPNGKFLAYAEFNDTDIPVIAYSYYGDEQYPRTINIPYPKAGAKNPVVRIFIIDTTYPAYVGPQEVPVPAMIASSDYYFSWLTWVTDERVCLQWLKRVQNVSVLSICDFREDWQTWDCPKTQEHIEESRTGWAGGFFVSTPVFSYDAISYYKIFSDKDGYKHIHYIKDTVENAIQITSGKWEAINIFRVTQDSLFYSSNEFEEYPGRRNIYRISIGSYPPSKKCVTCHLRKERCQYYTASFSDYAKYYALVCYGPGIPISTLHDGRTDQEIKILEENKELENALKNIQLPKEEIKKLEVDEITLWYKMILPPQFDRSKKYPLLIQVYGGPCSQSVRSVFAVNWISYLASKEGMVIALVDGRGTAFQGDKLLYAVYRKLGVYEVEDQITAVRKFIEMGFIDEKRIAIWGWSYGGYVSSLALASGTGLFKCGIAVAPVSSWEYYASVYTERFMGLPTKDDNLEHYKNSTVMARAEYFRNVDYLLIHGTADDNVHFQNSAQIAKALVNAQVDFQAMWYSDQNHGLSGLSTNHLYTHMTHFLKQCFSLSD

B1: anti-human FAP bivalent monospecific IgG comprising heavy chain variable region SEQ ID NO: 11 (antibody, V domains shown)
VH: EVQLVESGGGLVQPGGSLRLSCAASGFTFSSYAMIWVRQAPGKGLEWVSAISGSGGYTFNADSVKGRFTMSRDNSKNTLYLQMNSLRAEDTAVYYCAKRDGGYEGGAFDIWGQGTLVTVSS
VL: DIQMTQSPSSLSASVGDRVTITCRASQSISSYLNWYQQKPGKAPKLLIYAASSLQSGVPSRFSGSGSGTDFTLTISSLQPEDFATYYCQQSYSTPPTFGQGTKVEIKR
notes: IgG1 format, common light chain VK1-39/JK1
B2: anti-human FAP bivalent monospecific IgG comprising heavy chain variable region SEQ ID NO: 19 (antibody, V domains shown)
VH: EVQLVESGGGLVKPGGSLRLSCAASGFPFNYAWMSWVRQAPGKGLEWVGRIKPKTSGGATDYAAPVKDRFTISRDDSRNTLYLQMNSLKTEDTAVYYCSAREDIWNFFFDLWGQGTLVTVSS
VL: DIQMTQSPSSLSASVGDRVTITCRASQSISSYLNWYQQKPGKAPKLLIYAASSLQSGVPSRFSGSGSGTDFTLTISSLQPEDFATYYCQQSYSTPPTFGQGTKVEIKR
notes: as for B1
B3: anti-human FAP bivalent monospecific IgG comprising heavy chain variable region SEQ ID NO: 15 (antibody, V domains shown)
VH: QLQLQESGPGLVKPSETLSLTCTVSGGSISSSSYFWAWIRQPPGKGLEFIGNIYYSGSTYYNPSLKSRVTISVDTSKNQFSLKLSSVTAADTAVYYCARPSYYGSGNYYFAFWGQGTLVTVSS
VL: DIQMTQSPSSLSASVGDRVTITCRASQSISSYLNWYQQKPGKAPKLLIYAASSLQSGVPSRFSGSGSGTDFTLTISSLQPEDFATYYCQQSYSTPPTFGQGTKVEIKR
notes: as for B1
B4: anti-human FAP bivalent monospecific IgG comprising heavy chain variable region SEQ ID NO: 69 (antibody, V domains shown)
VH: EVQLVETGGGLIQPGGSLRLSCAASGFTVSSNYMSWVRQAPGKGLEWVSVIYSGGSTYYADSVKGRFTISRDNSKNTLYLQMNSLRAEDTAVYYCARGPTDAYPYLDYLWGQGTLVTVSS
VL: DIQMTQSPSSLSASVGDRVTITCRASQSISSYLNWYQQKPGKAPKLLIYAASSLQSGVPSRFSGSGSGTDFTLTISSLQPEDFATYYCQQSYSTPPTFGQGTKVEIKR
notes: IgG1 format, common light chain VK1-39/JK1; also called human/mouse cross-reactive FAP IgG

Molecular target: human CD26 (huCD26) expressed on 293FF cells (human, UniProt P27487 1-766)
Sequence (P27487 whole entry): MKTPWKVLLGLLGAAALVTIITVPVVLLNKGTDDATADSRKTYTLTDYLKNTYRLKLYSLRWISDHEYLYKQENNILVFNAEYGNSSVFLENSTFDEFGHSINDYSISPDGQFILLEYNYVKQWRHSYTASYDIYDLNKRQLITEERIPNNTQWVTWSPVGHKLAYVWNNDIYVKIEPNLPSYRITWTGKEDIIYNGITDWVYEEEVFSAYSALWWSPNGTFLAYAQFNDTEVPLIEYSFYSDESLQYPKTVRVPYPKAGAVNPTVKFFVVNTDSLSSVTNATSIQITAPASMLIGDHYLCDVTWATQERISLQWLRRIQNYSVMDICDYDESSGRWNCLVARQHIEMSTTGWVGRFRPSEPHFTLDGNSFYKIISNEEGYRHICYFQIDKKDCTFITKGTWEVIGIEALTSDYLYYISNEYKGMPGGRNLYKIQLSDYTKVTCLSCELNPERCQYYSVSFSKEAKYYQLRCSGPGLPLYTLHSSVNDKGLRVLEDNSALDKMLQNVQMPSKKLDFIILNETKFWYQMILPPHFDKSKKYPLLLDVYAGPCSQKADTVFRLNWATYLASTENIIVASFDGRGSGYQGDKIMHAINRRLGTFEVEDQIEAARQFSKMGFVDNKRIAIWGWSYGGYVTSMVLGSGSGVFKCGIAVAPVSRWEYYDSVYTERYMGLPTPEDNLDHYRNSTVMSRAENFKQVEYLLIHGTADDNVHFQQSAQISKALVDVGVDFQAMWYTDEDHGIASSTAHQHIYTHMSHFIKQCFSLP
Test: FACS, 293FF cells transiently transfected with huCD26
Procedure: The binding of all test and control antibodies to the cells was tested at a single concentration of 2.5 ug/ml. Goat-anti-human IgG F(ab)2-PE (Invitrogen, H10104) was used as secondary antibody (1:100 in FACS buffer). Ab0625 was used at 10 ug/ml and its binding was detected using Ab0250 (Becton Dickinson, 550767) (1:100 in FACS buffer). The FACS buffer containing PBS (Gibco, cat. #10010-015), 0.5% BSA (Thermo Scientific, cat. #37525), and 2 mM EDTA (Invitrogen, cat. #15575-020) was kept ice cold throughout the assay.
The target cells were harvested, counted, and centrifuged for 5 min at 300 g at 4 °C. Cells were then resuspended in FACS buffer at a concentration of 1×10⁶ cells/ml and transferred (200,000 cells/well) to a U-bottom 96-well FACS plate (BD, cat. #353910). Cells were then centrifuged for 3 min at 300 g at 4° C. and supernatant was discarded. 50 μl of primary antibody solutions were added to the cells, mixed, and incubated for 30 min at 2-8° C. in the dark. Cells were washed by adding 150 μl FACS buffer and centrifuged for 3 min at 300 g at 4° C. Supernatant was discarded, and cells were washed again by adding 200 μl FACS buffer to the plate. Cells were then centrifuged for 3 min at 300 g at 4° C. and afterwards the supernatant was discarded. 50 μl of secondary antibody solutions were added to the cells, mixed, and incubated for 30 min at 2-8° C. in the dark. Cells were then washed by adding 150 μl FACS buffer to the plate and centrifuged for 3 min at 300 g at 4° ° C. Supernatant was discarded and cells were washed again by adding 200 μl FACS buffer to the plate and centrifuged for 3 min at 300 g at 4° C. Supernatant was discarded and cells were fixated by adding 100 μl/well ice-cold Fixation buffer (2% formaldehyde solution in PBS, Sigma-Aldrich, cat. #47608-250ML-F). Cells were incubated for 15 min on ice in the dark. Afterwards, 100 μl ice-cold PBS was added to the cells and cells were centrifuged for 3 at 300 g at 4° C. Supernatant was discarded and cells were resuspended in 120 μl FACS buffer.

Row | Binder | binding result
1 | B1 | no binding (tested: 2.5 ug/ml)
2 | B2 | no binding (tested: 2.5 ug/ml)
3 | B3 | no binding (tested: 2.5 ug/ml)
4 | B4 | no binding (tested: 2.5 ug/ml)

Molecular target: T1, huFAP-His recombinant protein (R&D …)
Test: competition ELISA, huFAP-His coated, IgG at 0.05 ug/ml; competitor sibrotuzumab analog Fab
Procedure: ELISA was used to investigate the competitive binding of the human anti-FAP antibody panel with Fab fragments generated from the sibrotuzumab analog to huFAP-His protein (R&D Systems cat. #3715-SE).
The huFAP-His protein was coated (0.5 ug/ml, 50 μl/well) on two 96-wells ELISA plates (Certified Nunc-Immuno Maxisorp F96, Greiner Bio-One, cat. #655061). The plates were sealed (EASYseal, Greiner, cat. #676001) and incubated overnight at 4° ° C. The plates were washed with PBS/0.05% Tween 20 (PBS, Gibco, cat. #10010-015) (Tween 20, Merck, cat. #8.22184.0500) using the ELISA plate washer (BioTek 405 TS). Afterwards, the plates were emptied. Fab fragments of sibrotuzumab analog (25 ug/ml) were incubated on one plate for 30 min at RT, whereas the second plate was incubated with 300 μl/well PBS/2% BSA block buffer (BSA, Sigma, cat. #A3294-500 g) for 1 hour at RT. Afterwards, the plates were emptied. Antibodies from the human anti-FAP panel (0.05 ug/ml, 50 μl/well) were added, plates were covered with a EASYseal, and incubated for one hour at RT. The plates were washed three times with wash buffer using the ELISA washer and emptied. […] The plates were then washed three times with wash buffer using the ELISA washer and emptied. BD OptEIATMB Substrate Reagent Set (BD, cat. #555214) was then added to the wells (50 μl/well) and developed for maximal 10 min. Afterwards, 1 M H2SO4 (50 μl/well) was added to the wells to stop the staining reaction (color changes from blue to yellow). The plates were then measured using an ELISA plate reader (BioTek ELx808).

Row | Binder | binding result
5 | B1 | binds
6 | B2 | binds
7 | B3 | binds
